{"source": "paper doi:10.1101/2021.06.14.448436", "biological_target": "human angiotensin-converting enzyme 2 (human) (UniProt Q9BYF1)", "sequence (Q9BYF1 18-805)": "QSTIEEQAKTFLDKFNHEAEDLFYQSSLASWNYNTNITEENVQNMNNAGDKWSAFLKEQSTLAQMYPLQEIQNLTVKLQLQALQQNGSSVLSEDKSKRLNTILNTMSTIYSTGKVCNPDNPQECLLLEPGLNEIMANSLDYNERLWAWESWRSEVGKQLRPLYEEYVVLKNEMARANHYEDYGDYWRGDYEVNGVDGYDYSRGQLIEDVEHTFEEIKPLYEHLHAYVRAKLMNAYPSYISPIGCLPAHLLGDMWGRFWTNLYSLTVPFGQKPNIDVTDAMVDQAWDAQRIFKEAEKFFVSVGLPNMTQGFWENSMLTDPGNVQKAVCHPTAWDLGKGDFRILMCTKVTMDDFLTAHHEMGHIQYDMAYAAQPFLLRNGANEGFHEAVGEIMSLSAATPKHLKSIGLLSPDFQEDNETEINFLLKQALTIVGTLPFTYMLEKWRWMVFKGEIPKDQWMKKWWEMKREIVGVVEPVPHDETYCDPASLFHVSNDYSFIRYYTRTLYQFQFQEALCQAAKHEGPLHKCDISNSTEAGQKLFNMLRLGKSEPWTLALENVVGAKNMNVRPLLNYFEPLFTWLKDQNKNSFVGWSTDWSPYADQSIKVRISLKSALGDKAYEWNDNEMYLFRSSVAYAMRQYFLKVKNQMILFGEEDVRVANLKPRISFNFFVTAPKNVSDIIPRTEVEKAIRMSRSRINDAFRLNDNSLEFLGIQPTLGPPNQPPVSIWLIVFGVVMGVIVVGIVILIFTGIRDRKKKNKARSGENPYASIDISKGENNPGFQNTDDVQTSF", "experiment": "SPR"}
{"substance": "SARS-CoV-2 trimeric Spike protein, wild-type, prefusion-stabilised", "values": [{"measurement": "Kd", "value": 6.4, "unit": "nM"}]}
